Laboratory results reported in patent US20180185504A1 (Regeneron, published 2018).
Like-named read-outs stand apart in the source and are kept apart here.

T1: human PRLR on cells (endogenous on T47D, T47D#11, MCF7); introduced in HEK293/hPRLR/STAT5-Luc, 293/hPRLR, … (human, UniProt P16471 25-622)
T1 construct: no tag is stated for these lines; also called prolactin receptor
T1 sequence: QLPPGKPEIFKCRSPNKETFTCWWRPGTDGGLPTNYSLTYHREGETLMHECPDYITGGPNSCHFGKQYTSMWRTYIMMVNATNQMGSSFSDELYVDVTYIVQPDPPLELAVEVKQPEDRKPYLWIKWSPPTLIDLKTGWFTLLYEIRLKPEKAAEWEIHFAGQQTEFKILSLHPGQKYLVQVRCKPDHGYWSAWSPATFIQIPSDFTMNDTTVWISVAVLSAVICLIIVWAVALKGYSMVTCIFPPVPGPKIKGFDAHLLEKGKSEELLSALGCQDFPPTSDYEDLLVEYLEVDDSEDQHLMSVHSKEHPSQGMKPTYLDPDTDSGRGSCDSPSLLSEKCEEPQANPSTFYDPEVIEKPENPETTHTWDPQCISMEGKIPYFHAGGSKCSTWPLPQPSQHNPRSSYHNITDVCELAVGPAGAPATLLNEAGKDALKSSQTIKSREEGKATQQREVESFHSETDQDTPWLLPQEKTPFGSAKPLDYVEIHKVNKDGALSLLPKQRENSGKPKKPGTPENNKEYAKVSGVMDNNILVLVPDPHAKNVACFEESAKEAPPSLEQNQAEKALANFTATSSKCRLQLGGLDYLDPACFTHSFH

T2: monkey macaca fascicularis PRLR construct with an HA tag on HEK293/mfPRLR cells (macaca fascicularis, UniProt A0A2K5WXK1 25-619)
T2 construct: stably transfected into HEK293
T2 sequence: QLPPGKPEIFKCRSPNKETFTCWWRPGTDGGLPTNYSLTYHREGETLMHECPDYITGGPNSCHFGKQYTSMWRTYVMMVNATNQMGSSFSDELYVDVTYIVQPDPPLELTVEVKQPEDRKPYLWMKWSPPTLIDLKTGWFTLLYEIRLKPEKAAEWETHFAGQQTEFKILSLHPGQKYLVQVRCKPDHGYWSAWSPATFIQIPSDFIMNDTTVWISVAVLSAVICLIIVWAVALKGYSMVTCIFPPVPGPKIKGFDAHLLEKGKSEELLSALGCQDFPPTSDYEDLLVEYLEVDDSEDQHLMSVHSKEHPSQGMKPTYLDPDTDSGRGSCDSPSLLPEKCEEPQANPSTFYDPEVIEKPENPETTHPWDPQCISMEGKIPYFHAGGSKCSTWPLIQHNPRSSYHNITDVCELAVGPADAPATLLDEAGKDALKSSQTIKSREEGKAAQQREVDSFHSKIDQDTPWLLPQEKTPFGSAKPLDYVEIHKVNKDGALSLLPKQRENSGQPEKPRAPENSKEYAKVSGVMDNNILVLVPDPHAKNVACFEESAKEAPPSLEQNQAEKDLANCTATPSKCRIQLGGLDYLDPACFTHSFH

T3: hPRLR.mmh (soluble monomeric human PRLR) (human)
T3 construct: soluble monomeric PRLR protein
T3 chain: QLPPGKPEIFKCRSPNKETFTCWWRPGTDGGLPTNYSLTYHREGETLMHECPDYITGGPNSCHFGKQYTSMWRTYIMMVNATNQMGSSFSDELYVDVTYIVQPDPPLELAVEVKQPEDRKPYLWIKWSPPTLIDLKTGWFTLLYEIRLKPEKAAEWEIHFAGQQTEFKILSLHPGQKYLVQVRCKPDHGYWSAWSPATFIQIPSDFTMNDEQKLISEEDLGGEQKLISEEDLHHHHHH

T4: hPRLR.mFc (soluble dimeric human PRLR) (human)
T4 construct: dimeric PRLR construct
T4 chain: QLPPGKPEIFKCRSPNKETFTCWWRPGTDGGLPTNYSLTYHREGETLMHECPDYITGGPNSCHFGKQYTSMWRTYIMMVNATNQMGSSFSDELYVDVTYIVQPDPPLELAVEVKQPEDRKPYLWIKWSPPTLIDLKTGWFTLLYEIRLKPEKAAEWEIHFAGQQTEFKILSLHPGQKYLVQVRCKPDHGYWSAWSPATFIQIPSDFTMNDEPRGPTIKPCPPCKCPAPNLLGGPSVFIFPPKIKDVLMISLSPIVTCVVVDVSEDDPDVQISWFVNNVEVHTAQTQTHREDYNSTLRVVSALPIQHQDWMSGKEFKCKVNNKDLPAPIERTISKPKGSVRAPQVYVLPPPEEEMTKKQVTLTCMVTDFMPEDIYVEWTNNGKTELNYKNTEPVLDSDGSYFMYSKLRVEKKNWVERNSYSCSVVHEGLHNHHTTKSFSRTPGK

T5: mfPRLR.mmh (soluble monomeric macaca fascicularis PRLR) (macaca fascicularis)
T5 construct: soluble monomeric PRLR protein; also called macaca fascicularis (mf) PRLR.mmh; monkey PRLR
T5 chain: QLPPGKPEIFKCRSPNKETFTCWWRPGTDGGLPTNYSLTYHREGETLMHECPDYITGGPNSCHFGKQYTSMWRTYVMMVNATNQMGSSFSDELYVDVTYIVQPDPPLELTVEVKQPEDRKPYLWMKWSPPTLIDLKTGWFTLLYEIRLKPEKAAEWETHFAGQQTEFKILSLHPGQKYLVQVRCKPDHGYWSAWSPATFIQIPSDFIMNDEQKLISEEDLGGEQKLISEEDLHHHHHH

T6: human PRLR construct with an HA tag on HEK293/hPRLR cells (human, UniProt P16471 25-622)
T6 sequence: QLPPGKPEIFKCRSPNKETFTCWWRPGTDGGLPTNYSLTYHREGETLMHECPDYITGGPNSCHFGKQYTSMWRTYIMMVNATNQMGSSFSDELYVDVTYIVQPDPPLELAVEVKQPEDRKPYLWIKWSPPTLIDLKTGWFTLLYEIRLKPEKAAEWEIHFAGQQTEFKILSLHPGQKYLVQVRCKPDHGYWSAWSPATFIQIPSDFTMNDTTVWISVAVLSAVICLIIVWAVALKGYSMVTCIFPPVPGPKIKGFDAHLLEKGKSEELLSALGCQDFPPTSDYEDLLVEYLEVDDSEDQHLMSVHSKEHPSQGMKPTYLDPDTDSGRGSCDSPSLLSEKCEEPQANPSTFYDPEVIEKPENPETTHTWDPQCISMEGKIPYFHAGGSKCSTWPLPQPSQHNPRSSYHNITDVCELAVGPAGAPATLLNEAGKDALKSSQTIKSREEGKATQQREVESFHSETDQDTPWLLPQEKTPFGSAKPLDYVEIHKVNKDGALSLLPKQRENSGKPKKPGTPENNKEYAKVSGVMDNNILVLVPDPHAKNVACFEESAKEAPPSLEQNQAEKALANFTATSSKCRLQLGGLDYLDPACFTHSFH

T7: human prolactin receptor (PRLR) (human, UniProt P16471 25-622)
T7 sequence: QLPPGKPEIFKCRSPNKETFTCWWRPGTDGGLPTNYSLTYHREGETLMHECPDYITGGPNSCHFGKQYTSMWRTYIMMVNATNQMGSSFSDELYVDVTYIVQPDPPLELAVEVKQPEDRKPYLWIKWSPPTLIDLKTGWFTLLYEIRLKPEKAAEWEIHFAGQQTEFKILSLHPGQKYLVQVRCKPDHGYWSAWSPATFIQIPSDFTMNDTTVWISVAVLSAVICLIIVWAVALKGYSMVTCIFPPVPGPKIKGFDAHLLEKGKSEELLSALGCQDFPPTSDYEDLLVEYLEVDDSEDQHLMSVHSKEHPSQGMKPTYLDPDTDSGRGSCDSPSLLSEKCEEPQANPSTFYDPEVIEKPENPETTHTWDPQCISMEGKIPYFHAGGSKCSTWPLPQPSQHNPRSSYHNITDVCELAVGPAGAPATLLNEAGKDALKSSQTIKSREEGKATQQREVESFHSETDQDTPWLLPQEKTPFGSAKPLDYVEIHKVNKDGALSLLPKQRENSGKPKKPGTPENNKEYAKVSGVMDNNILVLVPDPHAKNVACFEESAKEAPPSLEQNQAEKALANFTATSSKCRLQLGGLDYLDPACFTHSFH


Tests used:
[1] = biological target: T1, human PRLR on cells (endogenous on …); assay: FACS on T47D cells
[2] = biological target: T1, human PRLR on cells (endogenous on …); assay: imaging of alexa488 intensity on T47D cells
Procedure: Briefly, 20,000 T47D cells were seeded in collagen coated 96 well plates. […] Cells were then incubated with alexa488 conjugated anti-hFc Fab secondary antibodies for 30 minutes on ice followed by two additional PBS washes. Antibodies were allowed to internalize for 1 h at 37° C. in internalization buffer (PBS+2% FBS) or remained at 4° C. Cells were fixed in 4% formaldehyde, nuclei were stained with DRAQ5 (Cell signaling), and images were acquired on the ImageXpress micro XL (Molecular Devices). Whole cell alexa488 intensity at 37° C. (Binding) and the alexa488 intensity in the intracellular vesicles at 37° C. (Internalization) were determined via Columbus image analysis software (PerkinElmer).

[3] = biological target: T2, monkey macaca fascicularis PRLR …; assay: FACS on HEK293/mfPRLR cells
[4] = biological target: T3, hPRLR.mmh (soluble monomeric human PRLR); assay: SPR (Biacore), antibody capture, 37 C
Procedure: (§1) Measurements were conducted on a T200 Biacore instrument. Kinetic association (kₐ) and dissociation (kd) rate constants were determined by processing and fitting the data to a 1:1 binding model using Scrubber 2.0 curve fitting software.

[5] = biological target: T4, hPRLR.mFc (soluble dimeric human PRLR); assay: SPR (Biacore), antibody capture, 37 C
Procedure: as §1

[6] = biological target: T5, mfPRLR.mmh (soluble monomeric macaca …); assay: SPR (Biacore), antibody capture, 37 C
Procedure: as §1

[7] = biological target: T6, human PRLR construct with an HA tag on …; assay: FACS on HEK293/hPRLR cells
[8] = biological target: T1, human PRLR on cells (endogenous on …); assay: cell-based or functional assay
[9] = biological target: T1, human PRLR on cells (endogenous on …); assay: cell-based or functional assay; remark: listed apart in the source
[10] = biological target: T7, human prolactin receptor (PRLR); assay: cell-based or functional assay
[11] = biological target: T7, human prolactin receptor (PRLR); assay: cell-based or functional assay; remark: listed apart in the source
[12] = biological target: T7, human prolactin receptor (PRLR); assay: cell-based or functional assay; remark: listed apart in the source
[13] = biological target: T7, human prolactin receptor (PRLR); assay: cell-based or functional assay; remark: listed apart in the source
[14] = biological target: T7, human prolactin receptor (PRLR); assay: cell-based or functional assay; remark: listed apart in the source

Binder	% Kill, MCF7/ATCC cells [10]	% Kill, MCF7/PRLR cells [10]	IC50, cell viability, MCF7/ATCC cells [10]	IC50, cell viability, MCF7/PRLR cells [10]	% Kill, MCF7/PRLR cells [11]	% Kill, MCF7 cells [11]	% Kill, T47D cells [11]	IC50, cell viability, MCF7/PRLR cells [11]	IC50, cell viability, MCF7 cells [11]	IC50, cell viability, T47D cells [11]	% Kill, PC3/PRLR cells [12]	IC50, cell viability, PC3/PRLR cells [12]	% Kill, T47D cells [13]	IC50, cell viability, T47D cells [13]	further results
H1H6801P (antibody, human IgG1, V domains shown, human IgG1 Fc (H1H)) VH: QVQLQQSGPGLVKPSQTLSLTCVISGDSVSSNTAWNWVRQSPSRGLEWLGRTYYRSKWYNDYAVSVKSRITINPDTSKNQFSLLMNSVTPEDTAVYYCARVVRGLNYFDYWGQGTLVTVSS VL: DIVMTQSPDSLAVSLGERATINCKSSQSVLYNSNNKNYLAWYQQKPGQPPKLLIYWSSSRESGVPDRFSGSGSGTDFTLTISGLQAEDVAIYYCQQYSTIPYTFGQGTKLEIK	–	–	–	–	–	–	–	–	–	–	–	–	–	–	FACS Cell Binding (Fold Above Background) [1]: 45 fold; % Total Binding relative to Control I [2]: 156%; FACS Cell Binding (Fold Above Background) [3]: 88 fold; Kd [4]: 4.63 nM; T 1/2 [4]: 3 min; koff [4]: 0.00441 s⁻¹; kon [4]: 951000 M⁻¹ s⁻¹; Kd [5]: 0.279 nM; T 1/2 [5]: 52 min; koff [5]: 0.000221 s⁻¹; kon [5]: 793000 M⁻¹ s⁻¹; Kd [6]: 10.8 nM; T 1/2 [6]: 1 min; koff [6]: 0.00771 s⁻¹; kon [6]: 711000 M⁻¹ s⁻¹; FACS Cell Binding (Fold Above Background) [7]: 47 fold; % Internalization relative to Control I (T47D cells, imaging) [8]: 149%; IC50 of Blocking 5 nM PRL [M] (STAT5-Luc reporter, HEK293/hPRLR/STAT5-Luc cells) [9]: 1.4e-10 M; Percent Blocking at 100 nM Antibody (STAT5-Luc reporter) [9]: 100%
H1H6975N-DM1 (antibody, human IgG1, V domains shown, DM1 conjugated through SMCC linker; attachment residues not stated) VH: EVHLVESGGGLVQPGGSLRLSCAASGFTFSSYEMNWVRQTPGKGLEWISHISSRSVIIYYADSVKGRFTISRDNAKNSLFLQMNSLRAEDTAVYFCAGITIFGIPEYWGQGTLVTVSS VL: EIVLTQSPATLSLSPGERATLSCRASQSVSSYFAWYQQKPGQAPRLLIYDASSRATGIPTRFSGSGSGTDFTLTISSLEPEDFAVYYCQQRSSWPITFGQGTRLEIK	70%	80%	200 nM	0.2 nM	87%	73%	80%	0.49 nM	150 nM	6.9 nM	68%	2.7 nM	100%	2 nM	–
H1H6765P-DM1 (antibody, human IgG1, V domains shown, DM1 conjugated through SMCC linker; attachment residues not stated) VH: EVQLVESGGGVVRPGGSLRLSCVGSGFSFDDHGMNWVRQGPGKGLEWVSGFNWNGGSTNYAESVKGRFTISRDNARNSLFLQMNSLRAEDTALYYCVRGRSGWFNDAFDVWGPGTMVTVSS VL: EIVLTQSPGTLSLSPGERATLSCRASQTINSNYLAWYRQKPGQTPRLLIYGTSSRATGIPDRFSGSGSGTDFSLTISRLEPEDFAVFYCQQYAGLPTFGPGTKVDIK	70%	90%	150 nM	0.3 nM	84%	68%	78%	0.18 nM	150 nM	1.63 nM	70%	0.57 nM	90%	1 nM	% Kill, MCF7/ATCC cells [14]: 71%; % Kill, MCF7/PRLR cells [14]: 81%; % Kill, PC3/hPRLR cells [14]: 83%; IC50, cell viability, MCF7/ATCC cells [14]: 90 nM; IC50, cell viability, MCF7/PRLR cells [14]: 0.1 nM; IC50, cell viability, PC3/hPRLR cells [14]: 0.3 nM
